Measurements: PMC3639176, “HnRNP A1/A2 and SF2/ASF Regulate Alternative Splicing of Interferon Regulatory Factor-3 and Affect Immunomodulatory Functions in Human Non-Small Cell Lung Cancer Cells”

Columns and labels:
[1] = biological target: GST-hnRNP A1 (UniProt P09651 1-372); experiment: EMSA; 2 ug tRNA competitor; LightShift Chemiluminescent EMSA kit; 20 fmol biotinylated RNA, 50 ng protein (20 ng in Fig. 3 legend), 2 ug tRNA, 20 ul, 20 min, room temperature; 6% native PAGE; buffer, salt and pH not stated; conditions: protein: recombinant; label: 3' biotin
Chain of GST-hnRNP A1 (P09651 whole entry): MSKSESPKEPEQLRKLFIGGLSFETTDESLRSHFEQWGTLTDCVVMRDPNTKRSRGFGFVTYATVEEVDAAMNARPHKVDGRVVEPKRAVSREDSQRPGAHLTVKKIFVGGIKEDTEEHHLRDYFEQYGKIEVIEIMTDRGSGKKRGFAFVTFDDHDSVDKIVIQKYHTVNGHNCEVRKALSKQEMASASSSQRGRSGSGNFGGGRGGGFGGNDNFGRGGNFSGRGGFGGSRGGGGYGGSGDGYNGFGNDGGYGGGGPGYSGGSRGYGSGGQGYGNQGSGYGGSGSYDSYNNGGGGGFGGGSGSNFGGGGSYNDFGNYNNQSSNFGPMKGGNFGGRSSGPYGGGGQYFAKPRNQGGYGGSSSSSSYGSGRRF

[2] = biological target: GST-SF2/ASF (UniProt Q07955 1-248); experiment: as above; conditions: protein: recombinant; label: 3' biotin
Chain of GST-SF2/ASF (Q07955 whole entry): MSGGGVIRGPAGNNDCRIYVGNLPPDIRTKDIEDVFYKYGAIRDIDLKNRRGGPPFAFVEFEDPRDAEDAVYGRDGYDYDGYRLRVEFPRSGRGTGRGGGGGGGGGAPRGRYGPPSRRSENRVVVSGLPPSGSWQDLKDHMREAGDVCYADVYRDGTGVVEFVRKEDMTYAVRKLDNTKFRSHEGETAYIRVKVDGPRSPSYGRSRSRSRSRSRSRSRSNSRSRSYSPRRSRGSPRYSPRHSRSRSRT

Row | Binder | binding result [1] | binding result [2]
1 | UGAAAUAACUAGGGAAAGAGGAUG (ssRNA) [wt-A1] | binds | –
2 | ACGCUGGGGAAGGAUGUGCCAUGGAUAUGGGAAGGAACCCUAG (ssRNA) [wt-SF2] | – | binds
